Results taken from paper PMC3581536.

Target: MazFa tagged with 6 histidine at its C-terminus (Anabaena sp. PCC 7120)
Assay: pull-down; MazEa and MazFa-His6 co-expressed in E. coli BL21(DE3)(pJS798); co-purified on Ni2+-NTA His.Bind resin under native conditions; 15% SDS-PAGE, bands identified by MALDI-TOF MS, densitometry with Image J

stoichiometry N (MazEa per MazFa (molar ratio)): 0.5
Substance: MazEa (natural protein)
